Measurements as given in paper doi:10.1101/2025.08.18.670960.

Biological target: UNC-119 tagged with the C-terminal fragment of Venus (C. elegans) (UniProt Q10658)
Assay: split reporter (BiFC, NanoBiT); BiFC in AWC neurons of wild-type animals: VC::UNC-119 with ODR-3::VN variants; read-out is percent of transgenic animals with signal; free VN as negative control

Chain of UniProt Q10658 (Q10658 whole entry, the tested form may be a part): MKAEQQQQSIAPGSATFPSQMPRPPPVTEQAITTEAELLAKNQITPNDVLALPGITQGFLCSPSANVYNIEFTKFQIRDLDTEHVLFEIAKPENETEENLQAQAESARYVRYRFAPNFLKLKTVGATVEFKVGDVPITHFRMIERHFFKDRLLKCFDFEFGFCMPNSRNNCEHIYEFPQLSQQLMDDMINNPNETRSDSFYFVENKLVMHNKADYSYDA

Q: With “ODR-3^WT tagged with the N-terminal Venus fragment (from UniProt Q18434 1-356) (natural protein)” as the substance, how does the percent of transgenic animals with BiFC signal read?
A: 81%

Q: Which percent of transgenic animals with BiFC signal does the source give for “ODR-3^A328P tagged with the N-terminal Venus fragment (from UniProt Q18434 1-356) (natural protein)” here?
A: 51%
